Assays:
[1] = target: 1:1 8D6 Fab/IgE-Fc complex; assay: SPR; sandwich: about 100 RU of His-tagged IgE-Fc captured on an 8D6 Fab surface, then a second 8D6 Fab injected at 30 uL/min; HBS-P
[2] = target: His-tagged IgE-Fc (human); assay: as above
Sequence of His-tagged IgE-Fc (human) (P01854 other isoform, or with tags, fused parts or gaps): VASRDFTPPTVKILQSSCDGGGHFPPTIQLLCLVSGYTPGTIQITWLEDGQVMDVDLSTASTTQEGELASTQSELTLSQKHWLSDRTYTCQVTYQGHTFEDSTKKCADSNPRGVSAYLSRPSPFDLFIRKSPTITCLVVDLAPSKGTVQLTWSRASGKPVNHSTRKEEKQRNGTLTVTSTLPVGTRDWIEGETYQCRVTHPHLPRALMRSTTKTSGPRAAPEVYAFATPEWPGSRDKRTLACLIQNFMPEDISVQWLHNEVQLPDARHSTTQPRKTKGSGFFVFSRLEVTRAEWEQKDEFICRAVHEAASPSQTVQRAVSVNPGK

Kd [1]: 0.06 nM
koff [1]: 6e-05 s⁻¹
kon [1]: 1e+06 M⁻¹ s⁻¹
stoichiometry N [2]: 2
B1: 8D6 Fab (Fab, V domains shown)
VH: QVQLQQSGAELAKPGASVMLSCKASGYTFNGYWMHWVKQRPGQDLEWIGYINPTTGHTEYNQKFKDKATLTADESSNTAYIELSSLTSDDSAVYYCARQEYRHSWFAYWGQGTLVTVSA
VL: DIVLTQSPASLAVSLGQRATISCKASQSVDYDGDTYMNWYHQKPGQPPKLLIYAASNLDSGIPARFSGSGSGTDFTLNIHPVEEEDAATYYCQQTNEDPWTFGGGTKLEIK

Source: paper PMC6070508
